T1: human TL1A (human, UniProt O95150 72-251)
T1 sequence (looked up): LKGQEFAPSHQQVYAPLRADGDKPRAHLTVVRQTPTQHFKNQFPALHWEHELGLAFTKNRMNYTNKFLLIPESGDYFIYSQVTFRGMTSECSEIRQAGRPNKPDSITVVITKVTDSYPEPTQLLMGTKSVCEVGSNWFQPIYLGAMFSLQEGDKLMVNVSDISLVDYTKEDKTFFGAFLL


Assays:
[1] = biological target: mouse DR3.Fc (mouse); experiment: SPR
[2] = biological target: T1, human TL1A; experiment: ELISA
[3] = biological target: recombinant mouse Galectin-9 (mouse, UniProt O08573 1-353); experiment: SPR
[4] = biological target: recombinant human Galectin-9 (human, UniProt O00182 1-355); experiment: SPR
Chain of recombinant human Galectin-9 (human, UniProt O00182 1-355) (O00182 whole entry): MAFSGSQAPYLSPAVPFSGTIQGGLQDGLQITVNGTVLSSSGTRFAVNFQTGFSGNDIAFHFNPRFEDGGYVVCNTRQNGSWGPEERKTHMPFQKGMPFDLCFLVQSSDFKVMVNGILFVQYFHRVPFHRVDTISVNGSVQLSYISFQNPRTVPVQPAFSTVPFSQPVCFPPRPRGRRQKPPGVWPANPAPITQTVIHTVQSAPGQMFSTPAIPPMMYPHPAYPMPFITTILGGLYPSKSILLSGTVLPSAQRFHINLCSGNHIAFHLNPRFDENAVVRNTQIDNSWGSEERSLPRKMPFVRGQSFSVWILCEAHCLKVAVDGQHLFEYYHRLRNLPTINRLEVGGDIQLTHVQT

Chain of recombinant human Galectin-9 (from UniProt O00182 1-355) (natural protein) (O00182 whole entry): as above
Chain of recombinant mouse Galectin-9 (from UniProt O08573 1-353) (natural protein) (O08573 whole entry): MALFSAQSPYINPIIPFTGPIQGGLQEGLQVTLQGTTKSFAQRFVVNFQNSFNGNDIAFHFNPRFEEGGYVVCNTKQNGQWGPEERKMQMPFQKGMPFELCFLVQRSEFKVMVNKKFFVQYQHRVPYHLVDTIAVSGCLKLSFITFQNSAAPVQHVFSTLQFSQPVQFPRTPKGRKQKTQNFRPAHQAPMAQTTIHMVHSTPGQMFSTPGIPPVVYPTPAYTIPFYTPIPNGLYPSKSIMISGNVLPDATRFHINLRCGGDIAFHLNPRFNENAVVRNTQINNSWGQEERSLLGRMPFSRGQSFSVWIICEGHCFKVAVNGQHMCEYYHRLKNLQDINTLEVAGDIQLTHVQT
Chain of recombinant mouse Galectin-9 (mouse, UniProt O08573 1-353) (O08573 whole entry): as above

Molecule | Kd [1] [nM] | binding result [2] | Kd [3] [nM] | Kd [4] [nM]
recombinant human Galectin-9 (from UniProt O00182 1-355) (natural protein) | 180 |  |  | 
human DR3.Fc (fusion protein containing the extracellular region of human DR3) (Fc fusion, UniProt Q93038 25-199, looked up) QGGTRSPRCDCAGDFHKKIGLFCCRGCPAGHYLKAPCTEPCGNSTCLVCPQDTFLAWENHHNSECARCQACDEQASQVALENCSAVADTRCGCKPGWFVECQVSQCVSSSPFYCQPCLDCGALHRHTRLLCSRRDTDCGTCLPGFYEHGDGCVSCPTSTLGSCPERCAAVCGWRQ |  | binds | ~440 | ~430

Next, values leading:

Kd [1] [nM] | binding result [2] | Kd [3] [nM] | Kd [4] [nM] | Molecule
360 |  |  |  | recombinant mouse Galectin-9 (from UniProt O08573 1-353) (natural protein)
 | binds |  |  | de-glycosylated human DR3.Fc (PNGase F treated) (Fc fusion, UniProt Q93038 25-199, looked up, N-linked sugars removed by PNGase F) QGGTRSPRCDCAGDFHKKIGLFCCRGCPAGHYLKAPCTEPCGNSTCLVCPQDTFLAWENHHNSECARCQACDEQASQVALENCSAVADTRCGCKPGWFVECQVSQCVSSSPFYCQPCLDCGALHRHTRLLCSRRDTDCGTCLPGFYEHGDGCVSCPTSTLGSCPERCAAVCGWRQ

Reference: paper PMC5659314 (Journal of immunology (Baltimore, Md. : 1950), 2017)
